Test results as given in publication PMC2719619, “Efficient, chemoselective synthesis of immunomicelles using single-domain antibodies with a C-terminal thioester” (BMC Biotechnology, 2009).

Tests used:
[1] = target: T1, Glutathione-S-transferase from Schistosoma japonicum (Schistosoma japonicum, UniProt P08515 = GST); assay: SPR; GST immobilised on a CM5 chip by EDC/NHS (160 RU), 0-500 nM sdAb injected, 25°C, PBS with 0.05% Tween-20, 30 μL/min; steady state responses fitted to a one-site binding model; apparent; conditions: both partners purified
T1 construct: GST of Schistosoma japonicum (printed as 'glutathione-S from Schistosoma japonicum'); recombinant from the vector pGEX-4T-2 in the selection; GST from pGEX-4T-2 would carry some residues of the vector's linker at its C-terminus; also called GST

[2] = target: T1, Glutathione-S-transferase from …; assay: ELISA; conditions: both partners purified

T1 sequence (P08515 whole entry, looked up): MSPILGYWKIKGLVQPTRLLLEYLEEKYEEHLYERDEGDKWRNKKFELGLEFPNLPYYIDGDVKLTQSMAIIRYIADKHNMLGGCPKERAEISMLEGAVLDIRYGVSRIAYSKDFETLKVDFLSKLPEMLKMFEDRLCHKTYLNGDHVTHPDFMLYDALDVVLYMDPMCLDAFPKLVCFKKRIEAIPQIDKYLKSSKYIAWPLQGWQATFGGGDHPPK

B1: sdAb-aGST-MESNA (llama single-domain antibody against GST with a C-terminal MESNA thioester) (VHH)
VHH: QVQLQDSGGGIVQPGGSLRLSCAGSGFSLDHYAIGWFRQAPGKRRELVASITSGGTIRYADSVKDRFTISRDNAKNRVYLQMNSLKPEDTAVYYCSARAKFSTSYDYWGQGTQVTVSS
notes: llama single-domain antibody from a naive phage display library, clone C11 of vector pHENIX sdAb-α GST C11; A mix of species that differ in how much of the pelB leader is left (LC-MS: calcd. 19632, 19501, 18175, 18062 Da); One conserved disulfide bond; also called sdAb-α GST-MESNA; sdAb-GST; source: E. coli BL21 (DE3), pTXB1, periplasm; purified on a chitin column, cleaved from the intein with …
With B1 the Kd [1] was 116 nM and the Kd [2] was 77 nM.
